Some results are limits rather than exact numbers.

For assay [1], the target named is T1, human BCMA (huBCMA), full length, on cells (human, UniProt Q02223 1-184).
T1 construct: also called native huBCMA; B-cell maturation antigen
T1 chain: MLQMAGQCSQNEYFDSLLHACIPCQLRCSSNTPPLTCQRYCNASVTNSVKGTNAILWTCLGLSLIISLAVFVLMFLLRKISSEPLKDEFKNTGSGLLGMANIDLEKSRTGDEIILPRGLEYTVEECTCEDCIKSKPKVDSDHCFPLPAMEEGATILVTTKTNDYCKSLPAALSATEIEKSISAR
Nature of the assay: FACS on H929 cells, native BCMA, relative binding, indirect.

Assay [2] has as its target T2, rhuBCMA fusion protein (6xHis::Sumo::huBCMA(aa 5-51)::GGS::G3::Avi) (human).
T2 construct: Monomeric tagged fusion; the entry holds the tags, Sumo and the BCMA part; also called Sumo-BCMA; SumoBCMA
T2 chain: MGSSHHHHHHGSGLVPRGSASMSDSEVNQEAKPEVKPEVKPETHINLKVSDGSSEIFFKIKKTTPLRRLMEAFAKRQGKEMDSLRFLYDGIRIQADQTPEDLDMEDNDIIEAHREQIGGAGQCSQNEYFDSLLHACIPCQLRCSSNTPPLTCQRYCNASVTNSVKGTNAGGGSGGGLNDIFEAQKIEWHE
Nature of the assay: Biacore T200 SPR, antibody captured on anti-human IgG, rBCMA fusion as analyte, 25 C, 1:1 model. Background: SPR reads the build-up and loss of mass on a sensor chip optically.

Assay [3] deals with T3, recombinant soluble human BCMA (Biacore analyte of Example 2) (human, UniProt Q02223 1-54).
T3 construct: also called rhu BCMA; rsol.hu BCMA
T3 sequence: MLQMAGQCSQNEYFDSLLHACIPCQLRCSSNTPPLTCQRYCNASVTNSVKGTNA
Briefly: Biacore, recombinant soluble human BCMA; measured on parental 2A1; patent says 2A1CV5 binds identically.

Assay [4] deals with T4, rrat BCMA fusion protein (GS::6xHis::Sumo::ratBCMA(aa 2-49)::GGS::G3::Avi) (rat).
T4 chain: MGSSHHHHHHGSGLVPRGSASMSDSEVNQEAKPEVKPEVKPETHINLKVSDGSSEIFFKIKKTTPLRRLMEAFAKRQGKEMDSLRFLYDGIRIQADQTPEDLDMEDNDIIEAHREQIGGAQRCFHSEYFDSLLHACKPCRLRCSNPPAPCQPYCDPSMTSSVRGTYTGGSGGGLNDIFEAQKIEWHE
Nature of the assay: Biacore T200 SPR, antibody captured on anti-human IgG, rBCMA fusion as analyte, 25 C.

B1: Ab-1 (2A1CV5) (antibody, human IgG1, lambda, V domains shown)
VH: EVQLVESGGGLVKPGGSLRLSCAASGFTFGDYALSWFRQAPGKGLEWVGVSRSKAYGGTTDYAASVKGRFTISRDDSKSTAYLQMNSLKTEDTAVYYCASSGYSSGWTPFDYWGQGTLVTVSS
VL: not shown
For orientation: EC50 means the midpoint of the concentration-response curve. Lower therefore signals greater potency. For orientation: Kd means the concentration at which binding is half-saturated. For B1, in assay [1], the EC50 is 1.2 nM. For the same molecule, the dissociation constant Kd in assay [2] was 0.155 nM; in assay [3], 0.027 nM; in assay [4], greater than 10 nM.

Values taken from patent US20170165373A1 (Amgen, published 2017).
